The labels stand for the following.
B1: LIGHTt66-FLAG (ligand, not shown: small tags and cut ends)
chain: EMVTRLPDGPAGSWEQLIQERRSHEVNPAAHLTGANSSLTGSGGPLLWETQLGLAFLRGLSYHDGALVVTKAGYYYIYSKVQLGGVGCPLGLASTITHGLYKRTPRYPEELELLVSQQSPCGRATSSSRVWWDSSFLGGVVHLEAGEEVVVRVLDERLVRLRDGTRSYFGAFMV
notes: also called soluble homotrimeric LIGHT; recombinant soluble LIGHT
B2: LIGHT t66 L120Q (ligand, not shown: small tags and cut ends)
chain: B1 chain with L54Q
notes: FLAG-tagged point mutant from transiently transfected 293T cells, homotrimer; also called L12OQ
B3: LIGHT t66 G119E (ligand, not shown: small tags and cut ends)
chain: B1 chain with G53E
notes: FLAG-tagged point mutant from transiently transfected 293T cells, homotrimer; also called LIGHTG119E; LIGHT-G119E
B4: LIGHT t66 Q117T (ligand, not shown: small tags and cut ends)
chain: B1 chain with Q51T
notes: FLAG-tagged point mutant from transiently transfected 293T cells, homotrimer; also called Q11TT
B5: LIGHT t66 Y173F (ligand, not shown: small tags and cut ends)
chain: B1 chain with Y107F
notes: FLAG-tagged point mutant from transiently transfected 293T cells, homotrimer
B6: human HVEM:Fc (Fc of human IgG1) (Fc fusion, UniProt Q92956 39-184, looked up)
chain: LPSCKEDEYPVGSECCPKCSPGYRVKEACGELTGTVCEPCPPGTYIAHLNGLSKCLQCQMCDPAMGLRASRNCSRTENAVCGCSPGHFCIVQDGDHCAACRAYATSSPGQRVQKGGTESQDTLCQNCPPGTFSPNGTLEECQHQTK
notes: range 1-184; Bivalent chimeric protein made with baculovirus vector pVL1392; also called huHVEM:Fc; hu HVEM:Fc; not shown: Fc region of human IgG1
B7: LTα homotrimer (ligand, UniProt P01374 35-205, looked up)
chain: LPGVGLTPSAAQTARQHPKMHLAHSTLKPAAHLIGDPSKQNSLLWRANTDRAFLQDGFSLSNNSLLVPTSGIYFVYSQVVFSGKAYSPKATSSPLYLAHEVQLFSSQYPFHVPLLSSQKMVYPGLQEPWLHSMYHGAAFQLTQGDQLSTHTDGIPHLVLSPSTVFFGAFAL
B8: p30 (LIGHT), the cell surface HVEM ligand of activated II-23.D7 cells and human T cells (ligand)
chain: MEESVVRPSVFVVDGQTDIPFTRLGRSHRRQSCSVARVGLGLLLLLMGAGLAWQGWFLLQLHWRLGEMVTRLPDGPAGSWEQLIQERRSHEVNPAAHLTGANSSLTGSGGPLLWETQLGLAFLRGLSYHDGALVVTKAGYYYIYSKVQLGGVGCPLGLASTITHGLYKRTPRYPEELELLVSQQSPCGRATSSSRVWWDSSFLGGVVHLEAGEEVVVRVLDERLVRLRDGTRSYFGAFMV
notes: see m1; also called 30 kDa protein; cell surface ligand for HVEM
B9: murine LTβR:Fc (Fc fusion, mouse, UniProt P50284 31-221, looked up)
chain: QLVPPYRIENQTCWDQDKEYYEPMHDVCCSRCPPGEFVFAVCSRSQDTVCKTCPHNSYNEHWNHLSTCQLCRPCDIVLGFEEVAPCTSDRKAECRCQPGMSCVYLDNECVHCEEERLVLCQPGTEAEVTDEIMDTDVNCVPCKPGHFQNTSSPRARCQPHTRCEIQGLVEAAPGTSYSDTICKNPPEPGAM
notes: range 1-221; Encoded range includes the signal peptide; also called muLTβR:Fc; mouse LTβR:Fc; not shown: Fc region; human IgG1 by the opening sentence of the paragraph, not restated for this construct

The target in one assay is T1, murine HVEM:Fc (mouse; human, UniProt Q80WM9 39-205; P01857 99-330 = IgG part).
T1 construct: range 1-205;domain: Fc region; Produced in TN5 insect cells, protein A purified, 58 kDa reduced; Encoded range includes the signal peptide; also called muHVEM:Fc; mouse HVEM:Fc
T1 sequence (Q80WM9 other isoform, or with tags, fused parts or gaps): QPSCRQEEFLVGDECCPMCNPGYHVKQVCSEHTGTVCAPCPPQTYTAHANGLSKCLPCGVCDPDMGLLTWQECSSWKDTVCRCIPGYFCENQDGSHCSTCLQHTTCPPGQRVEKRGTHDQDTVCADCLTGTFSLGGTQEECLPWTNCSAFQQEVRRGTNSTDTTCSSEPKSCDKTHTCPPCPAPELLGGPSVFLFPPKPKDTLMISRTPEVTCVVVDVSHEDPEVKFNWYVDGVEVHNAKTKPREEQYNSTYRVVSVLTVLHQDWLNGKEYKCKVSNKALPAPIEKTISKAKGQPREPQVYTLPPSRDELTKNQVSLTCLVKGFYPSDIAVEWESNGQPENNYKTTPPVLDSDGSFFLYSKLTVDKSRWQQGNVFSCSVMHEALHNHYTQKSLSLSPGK
As to the kind of experiment: ELISA, plate-bound receptor:Fc, M2 anti-FLAG detection. On the technique in general: ELISA stands for enzyme-linked immunosorbent assay.

The assay “murine LTβR:Fc” concerns the target B9. The assay is described as above.
The target of another assay is LTβR (whole, in cells) (human, UniProt P36941 31-435). As to the kind of experiment: cell-based or functional assay.
The target in assay [1] is B6. Put plainly: SPR (BIAcore 1000), receptor:Fc amine-coupled to CM5 chip, LIGHT as analyte 100-500 nM, 25 C. (In general: In SPR one partner is held on a chip, and binding of the other changes the refractive index at the surface.)
For assay [2], the target named is T2, human LTβR:Fc (human, UniProt P36941 31-227, limits assumed).
T2 construct: Bivalent chimeric protein, previously described; also called huLTβR:Fc; hu LTβR:Fc; not shown: Fc region of human IgG1
T2 sequence (P36941 31-227 limits assumed): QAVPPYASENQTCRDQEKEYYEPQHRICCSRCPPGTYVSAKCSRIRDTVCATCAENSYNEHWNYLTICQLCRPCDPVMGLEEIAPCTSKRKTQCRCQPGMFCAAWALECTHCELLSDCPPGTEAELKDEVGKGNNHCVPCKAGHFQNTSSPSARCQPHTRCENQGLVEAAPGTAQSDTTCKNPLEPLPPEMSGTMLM
Described as above.

Assay [3] deals with B6. As to the kind of experiment: ELISA, plate-bound receptor:Fc, M2 anti-FLAG detection.
For assay [4], the target named is B6. Put plainly: SPR.
Assay [5] concerns the target T2, human LTβR:Fc. Put plainly: SPR (BIAcore 1000), receptor:Fc amine-coupled to CM5 chip, LIGHT mutant as analyte.
The next assay addresses TNF (UniProt P01375 77-233). Put plainly: precipitation of 35S-labelled secreted proteins of activated II-23.D7 cells with receptor:Fc 10 µg/ml and protein G, SDS-PAGE.
The target in assay [6] is B8. As to the kind of experiment: flow cytometry, graded HVEM:Fc on activated II-23.D7 cells. A general note: In flow cytometry, cells or beads pass a laser one at a time.
The target of the assay “LTα homotrimer” is B7. Put plainly: precipitation of 35S-labelled proteins with receptor:Fc and protein G, SDS-PAGE.
Assay [7] has as its target T3, TNFR1 on normal human dermal fibroblasts (human, UniProt P19438 30-455).
T3 sequence (looked up): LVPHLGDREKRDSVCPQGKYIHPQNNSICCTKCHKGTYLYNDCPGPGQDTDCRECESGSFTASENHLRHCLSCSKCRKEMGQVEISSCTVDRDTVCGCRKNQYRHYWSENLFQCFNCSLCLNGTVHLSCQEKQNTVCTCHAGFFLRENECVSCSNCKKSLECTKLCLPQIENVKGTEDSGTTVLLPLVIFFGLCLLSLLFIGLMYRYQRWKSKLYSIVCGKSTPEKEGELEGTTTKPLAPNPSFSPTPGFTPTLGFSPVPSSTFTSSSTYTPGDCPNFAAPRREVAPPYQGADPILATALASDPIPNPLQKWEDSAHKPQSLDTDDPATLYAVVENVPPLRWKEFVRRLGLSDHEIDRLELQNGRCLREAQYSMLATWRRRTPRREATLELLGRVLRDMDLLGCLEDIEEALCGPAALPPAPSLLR
As to the kind of experiment: cell-based or functional assay.

A further assay has as its target T4, TNFR60:Fc (human, UniProt P19438 30-211, limits assumed).
T4 construct: Previously described construct (Crowe 1994); also called TNFR:Fc; TNFR1-Fc; not shown: Fc region of human IgG1
T4 sequence (looked up): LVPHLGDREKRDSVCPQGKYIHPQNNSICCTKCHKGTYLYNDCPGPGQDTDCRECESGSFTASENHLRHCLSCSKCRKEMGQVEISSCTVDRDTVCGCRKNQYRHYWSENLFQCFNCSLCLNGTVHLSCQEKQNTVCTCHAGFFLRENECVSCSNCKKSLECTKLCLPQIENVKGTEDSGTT
Put plainly: precipitation from detergent extracts of activated II-23.D7 cells, SDS-PAGE and 2D electrophoresis.

The target in assay [8] is T5, LTα1β2 complex from II-23.D7 cells (human, UniProt P01374 35-205; Q06643 1-244).
T5 construct: also called LTβ (33 kDa) and LTα (23-25 kDa) complex
T5 sequence (looked up) 1: B7 chain
T5 sequence (looked up) 2: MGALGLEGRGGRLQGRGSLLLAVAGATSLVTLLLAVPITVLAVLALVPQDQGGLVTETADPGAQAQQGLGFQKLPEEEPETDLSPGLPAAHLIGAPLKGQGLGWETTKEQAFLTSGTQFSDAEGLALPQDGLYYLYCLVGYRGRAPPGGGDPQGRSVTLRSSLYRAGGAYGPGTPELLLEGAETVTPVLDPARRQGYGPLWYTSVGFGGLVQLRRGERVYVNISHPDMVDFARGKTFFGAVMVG
As to the kind of experiment: 2D electrophoresis of proteins bound to murine LTβR:Fc, FIG. 4A.

Numbering of substitutions follows the chain as printed. Names may count otherwise.

Chain of TNF (P01375 77-233 limits assumed): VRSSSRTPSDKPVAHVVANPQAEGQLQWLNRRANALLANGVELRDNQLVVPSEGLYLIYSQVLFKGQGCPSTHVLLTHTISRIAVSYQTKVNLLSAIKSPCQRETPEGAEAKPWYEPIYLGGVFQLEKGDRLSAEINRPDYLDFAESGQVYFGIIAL

Consider B1, for which the “fold lower affinity than for the human receptor” value with murine HVEM:Fc came to 10 fold. Further, the “fold lower affinity than for the human receptor” value with murine LTβR:Fc turned out to be 10 fold. Further, in the assay with LTβR (whole, in cells), the “IC50 for inhibition of HCMV pp28 expression (western blot)” value was around 0.4 nM and the “up-regulation of ICAM expression by NHDF cells (flow cytometry, 36 h, 5 nM)” value came out at 4 fold. In [1], the affinity, expressed as Kd, was 3.9 nM; the koff (commonly the first-order rate constant of dissociation) turned out to be 4.8e-05 s⁻¹; the kon (commonly the second-order rate constant of association) came out at 12000 M⁻¹ s⁻¹. Further, in the assay with human LTβR:Fc [2], the dissociation constant Kd (in general, the constant that tells how readily two partners part at equilibrium) came out at 4.5 nM; the koff was 0.00012 s⁻¹; the kon worked out at 27000 M⁻¹ s⁻¹.
As to B2, the binding result (in assay [3]; with murine LTβR:Fc) was “binds” in each case.
For the molecule B3, in [4], the “fold lower affinity than LIGHT t66” value was around 30 fold. Moreover, the binding result with murine HVEM:Fc is “no binding”. The binding result in the assay with murine LTβR:Fc was “no binding”. Further, in the assay with human LTβR:Fc [5], the binding result is recorded as “no binding (tested: 100 to 500 nM)”. Moreover, the “up-regulation of ICAM expression by NHDF cells (flow cytometry, 36 h, 20 nM)” value with LTβR (whole, in cells) was below 1.5 fold. In addition, in assay [1], the Kd came out at 114 nM, the koff turned out to be 0.002 s⁻¹ and the kon stood at 18000 M⁻¹ s⁻¹.
In [1], B4 registered a Kd of 0.3 nM, an off-rate (koff) of 5e-06 s⁻¹ and a kon of 20000 M⁻¹ s⁻¹. Moreover, in the assay with human LTβR:Fc [2], binding was characterised by a dissociation constant (Kd) of 1.5 nM, the koff was determined as 4.5e-05 s⁻¹ and the kon worked out at 32000 M⁻¹ s⁻¹.
In the case of B5, in assay [4], binding was put at a Kd of 180 nM and the “fold lower affinity than LIGHT t66” value was above 40 fold. Further, the binding result in the assay with murine HVEM:Fc is recorded as “no binding”. For the same molecule, the binding result with murine LTβR:Fc is listed as “no binding”. For the same molecule, the “up-regulation of ICAM expression by NHDF cells (flow cytometry, 36 h, 20 nM)” value in the assay with LTβR (whole, in cells) was 2.5 fold. In assay [1], the Kd worked out at 173 nM, the dissociation rate constant (koff) was 0.0033 s⁻¹ and the kon was 19000 M⁻¹ s⁻¹. In the assay with human LTβR:Fc [2], this molecule gave a Kd of 31 nM, a koff of 0.0011 s⁻¹ and a kon of 37000 M⁻¹ s⁻¹.
Consider B6, for which the binding result in the assay with TNF is given as “no binding”; with LTα homotrimer, “binds”. For the same molecule, the EC50 – broadly, the concentration giving half of the maximal effect – in [6] was around 20 nM.
As for B7, in assay [7], the “IC50 for inhibition of HCMV pp28 expression (western blot)” value was around 0.01 nM; the “anti-viral activity against LTα1β2 and LIGHT (pp28 expression)” value was at least 40 fold.
For the molecule B8, the binding result with TNFR60:Fc is recorded as “no binding”.
Turning to B9, the binding result in [8] was “binds”.
